Laboratory results published in patent US20080020412A1, “Aurora expression constructs” (priority 2006, published 2008).

T1: mouse Aurora-A (Mus musculus, UniProt P97477, K218R/M280L/N164G)
T1 construct: mouse Aurora-A residues 98-395; GST (N, cleaved yes); made in house; host or cells: E. coli BL21(DE3) Star, co-expressed with lambda phosphatase; a second 98-395 preparation came from insect cells
T1 sequence (P97477 with tags, fused parts or gaps N164G/K218R/M280L): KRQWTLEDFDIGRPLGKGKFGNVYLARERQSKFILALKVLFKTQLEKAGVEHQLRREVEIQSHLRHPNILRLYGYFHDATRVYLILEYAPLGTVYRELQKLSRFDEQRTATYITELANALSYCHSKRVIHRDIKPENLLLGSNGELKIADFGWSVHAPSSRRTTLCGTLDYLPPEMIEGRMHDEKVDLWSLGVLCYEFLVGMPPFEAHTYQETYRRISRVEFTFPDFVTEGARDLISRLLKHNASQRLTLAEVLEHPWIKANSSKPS

B1: mAurB 7X: truncated mouse Aurora-B with 7 hydrophobic surface residues mutated, GST-tagged (protein, listed as Mus musculus)
chain: KRQFTIDNFEIGRPLGKGKFGNVYLAREKKSRFIVALKILFKSQIEKEGVEHQLRREIEIQAHLKHPNILQLYNYFYDQQRIYLILEYAPRGELYKELQKSRTFDEQRTATIMEELSDALTYCHKKKVIHRDIKPENLLLGSQGELKIADFGWSVHAPSSRRKTMCGTLDYLPPEMIEGRMHNEKVDLWCIGVLCYELMVGNPPFESPSHSETYRRISKVDLKFPSSVTSGAQDLISKLLKHNPSQRLTLAEVAAHPWVRANSRRPS
modifications: GST tag
notes: truncated mouse Aurora-B with 7 hydrophobic surface residues mutated, GST-tagged
B2: insect cell-expressed 98-395: insect cell-produced mouse Aurora-A enzyme with residues 98-395 (human residues 107-403) (protein, UniProt P97477 98-395, looked up, fragment)
chain: GNDSEKEQASLQKTEDTKKRQWTLEDFDIGRPLGKGKFGNVYLARERQSKFILALKVLFKTQLEKANVEHQLRREVEIQSHLRHPNILRLYGYFHDATRVYLILEYAPLGTVYRELQKLSKFDEQRTATYITELANALSYCHSKRVIHRDIKPENLLLGSNGELKIADFGWSVHAPSSRRTTMCGTLDYLPPEMIEGRMHDEKVDLWSLGVLCYEFLVGMPPFEAHTYQETYRRISRVEFTFPDFVTEGARDLISRLLKHNASQRLTLAEVLEHPWIKANSSKPPTGHTSKEPTSKSS
B3: E. coli-produced 98-395: bacterially produced mouse Aurora-A residues 98-395 with three humanizing and stabilizing mutations (protein)
chain: GNDSEKEQASLQKTEDTKKRQWTLEDFDIGRPLGKGKFGNVYLARERQSKFILALKVLFKTQLEKAGVEHQLRREVEIQSHLRHPNILRLYGYFHDATRVYLILEYAPLGTVYRELQKLSRFDEQRTATYITELANALSYCHSKRVIHRDIKPENLLLGSNGELKIADFGWSVHAPSSRRTTLCGTLDYLPPEMIEGRMHDEKVDLWSLGVLCYEFLVGMPPFEAHTYQETYRRISRVEFTFPDFVTEGARDLISRLLKHNASQRLTLAEVLEHPWIKANSSKPPTGHTSKEPTSKSS
modifications: Mutated Constructs
notes: bacterially produced mouse Aurora-A residues 98-395 with three humanizing and stabilizing mutations
B4: E. coli-produced 116-381: E. coli-expressed mouse Aurora-A crystallography construct, residues 116-381 (human residues 125-391) (protein)
chain: KRQWTLEDFDIGRPLGKGKFGNVYLARERQSKFILALKVLFKTQLEKAGVEHQLRREVEIQSHLRHPNILRLYGYFHDATRVYLILEYAPLGTVYRELQKLSRFDEQRTATYITELANALSYCHSKRVIHRDIKPENLLLGSNGELKIADFGWSVHAPSSRRTTLCGTLDYLPPEMIEGRMHDEKVDLWSLGVLCYEFLVGMPPFEAHTYQETYRRISRVEFTFPDFVTEGARDLISRLLKHNASQRLTLAEVLEHPWIKANSSKPS
modifications: Mutated Constructs

Experiments:
[1] = target: T2, mouse Aurora-B (Mus musculus, UniProt O70126, L215S/L233S/M258K/P302T/P322T/V291S/W318S); experiment: Aurora-B enzyme activity assay (HTRF); assay type: biochemical; details: 20 nM construct against 300 nM commercially available Aurora-B
T2 construct: made in house; host or cells: E. coli BL21(DE3) Star
Method: Aurora-B enzyme preparations were tested for kinase activity in the presence and absence of compounds using a homogeneous time resolved fluorescence (HTRF) assay. In brief, the assay was performed by adding enzyme under appropriate reaction conditions to a tagged substrate. After the kinase reaction proceeds, quenching reagent is added, along with a first molecule consisting of a fluorescence donor conjugated to an antibody recognizing the phosphorylated substrate, and a second molecule that recognizes the tag and that is conjugated to a fluorescence acceptor. The extent of the kinase reaction is measured by time-resolved fluorescence transfer from the fluorescence donor to the fluorescence acceptor in a detection buffer, which occurs when the donor and acceptor are in proximity to one another on the phosphorylated substrate.
The assay was carried out as follows. […]
A 5 μL aliquot of the quenched reaction was transferred to a separate plate containing 5 μL detection buffer (final concentrations: 125 ng/mL europium cryptate-conjugated α-phospho H3 antibody, 8 nM streptavidin-tagged XL665, 25 mM HEPES buffer (pH 7.0), 0.25 M KF, and 0.05% BSA). The detection solution was allowed to incubate at room temperature for 45 min, after which the detection reactions were read on an Analyst AD (LJL Biosystems). […] Delta F is a value calculated from the ratio between the 665 nm and 620 nm emissions. […]

[2] = Electrospray mass spectrometry of purified protein for proteolysis between residues 291 and 292; assay type: physicochemical; details: expressed in E. coli, GST-tagged protein
Text: mAurB 7X was expressed in E. coli, purified as described below, and analyzed by electrospray mass spectrometry to verify the integrity of the purified protein. […] A construct missing the Val291→Ser and Met258→Lys mutations (referred to as mAurB 5X) was purified, and analyzed by mass spec to determine the extent of proteolysis between Val291 and Lys292. Even in this wild type configuration, proteolysis still affected approximately 25% of total GST-tagged protein. Two additional conservative mutations were introduced to eliminate the major site of proteolysis: Val291→Leu and Lys292→Arg referred to as mAurB 8X VK→LR (5′ primer: SEQ ID NO:53; 3′ primer: SEQ ID NO:54) and Val291→Leu and Lys292→Gln referred to as mAurB 8X VK→LQ (5′ primer: SEQ ID NO:55; 3′ primer: SEQ ID NO:56). The protein sequences of the mAurB 8X VK→LR and mAurB 8X VK→LQ are provided in SEQ ID NO:57 and SEQ ID NO:58, respectively.

[3] = test system: mouse Aurora-A; experiment: Aurora-A activity assay (HTRF, enzyme and ATP titrations, histone H3 peptide substrate); assay type: biochemical; details: for Km / Vmax/[enzyme]: ATP titration; for Km: 120 nM biotinylated histone H3 peptide, 25° C., fit in GraphPad Prism; for Vmax/[enzyme]: ΔF/hr per nM enzyme
Method: (§1) Protein samples were diluted to 1 mg/mL and incubated for 2 hrs at 4° C. with 1 mM ATP and 5 mM MgCl2. Excess ATP was removed by extensive dialysis against 50 mM Tris-HCl pH 7.5, 200 mM NaCl, and 3 mM DTT.
(§2) Aurora A was titrated twofold in an assay buffer composed of 10 mM Tris-HCl pH 7.2, 10 mM MgCl2, 0.1% BSA, 0.01% Triton X-100 and 1 mM DTT, and containing 120 nM of biotinylated histone H3 substrate peptide (Upstate Biotechnology). The kinase reactions were initiated by adding 10 μL ATP to a final volume of 60 μL and the final ATP concentration of 20 μM. The reactions were incubated at 25° C. for 60 min and terminated by adding EDTA to a final concentration of 200 mM.
(§3) To determine the Km for ATP, ATP was titrated twofold in the assay buffer. The kinase reaction was initiated by adding 50 μL Aurora A (16 nM of insect cell-produced mouse enzyme with residues 98-395, 8 nM of the bacterially produced enzyme with residues 98-395, and 30 nM of the E. coli-expressed crystallography construct with residues 116-381) and histone H3 to a final volume of 60 μL and a final concentration of 120 nM.
(§4) To detect the assay product, the kinase reaction solution was combined with the detection buffer (the KF buffer) supplemented with 0.4 ng/μL phospho-histone H3 europium cryptate-conjugated antibody and 16 nM streptavidin-XL665 (both from Cisbio) in a 1:1 ratio in a 384-well plate. The mixture was incubated for 45 minutes at 25° C. and the plate was then scanned on the Analyst AD system. The fluorescence value F is defined as the ratio of fluorescent emissions at 620 and 665 nm. ΔF was generated by subtracting the average F value for negative control for enzyme activity from the F value in each reaction well. ΔF was plotted against enzyme concentration (for enzyme titrations) or against ATP concentration (for ATP titrations) with GraphPad Prism. The Km values and confidence intervals were determined by fitting the ATP titration curve in GraphPad Prism to the following equation: y=(Vmax*x)/(Km+x), where y is ΔF/hr and x is an ATP concentration.

[4] = target: T1, mouse Aurora-A; experiment: as above; assay type: biochemical; details: compared with the longer construct, FIG. 4
Method: as §1, §2, §3, §4

Row | Molecule | activity compared with commercially available Aurora-B [1] | extent of proteolysis between residue 291 and Lys292 [2] | Km [3] | Vmax/[enzyme] [3] | change in Km for ATP (in words) [4] | enzyme activity (in words) ([3]; H3 peptide as substrate, FIG. 4)
1 | B1 | compares favorably | Approximately 50% |  |  |  | 
2 | B2 |  |  | 13.6 ± 3.9 µM | 590 h⁻¹ nM⁻¹ |  | 
3 | B3 |  |  | 10.5 ± 3.5 µM | 1035 h⁻¹ nM⁻¹ |  | 
4 | B4 |  |  | 65.3 ± 16.1 µM | 280 h⁻¹ nM⁻¹ | substantial increase in the Km for ATP | less active
